The source of these data is PMC5542768, “Structural insight into the activation of a class B G-protein-coupled receptor by peptide hormones in live human cells” (eLife, 2017).

Non-standard residues stand in square brackets, D forms with d. No end group written: not given here. *: point of attachment. Nle = CCCC[C@H](N)C(=O)O; ClAc = O=C(CCl)*

The target in one assay is corticotropin-releasing factor receptor type 1 (CRF1R), wild type (rat) (UniProt P35353).
Experiment: not given
Details: not given
Substance [Lys(ClAc)^31]-^XCRF (peptide) registered an EC50 of cAMP accumulation (CRE-luciferase reporter) in HEK293 cells transfected with CRF1R of 60 pM.

For the substance [Lys(ClAc)^31]-^dFXCRF(12-41) (peptide), the Receptor activation at 100 nM [%] (cAMP accumulation, normalized to Ucn1 or CRF) is 0.52%.

For [Lys(ClAc)^15]-^dFXCRF(12-41) (peptide), the Receptor activation at 100 nM [%] (cAMP accumulation, normalized to Ucn1 or CRF) is 0.39%.

Take [Lys(ClAc)^18]-^XCRF (peptide): the EC50 of cAMP accumulation (CRE-luciferase reporter) in HEK293 cells transfected with CRF1R was found to be 30 pM.

“Urocortin I (Ucn1) (from UniProt P55089 83-124) (peptide)” registered an EC50 of cAMP accumulation (CRE-luciferase reporter) in HEK293 cells transfected with CRF1R of 160 pM.

Substance [Lys(ClAc)^13]-^dFXCRF(12-41) (peptide) came in with a Receptor activation at 100 nM [%] (cAMP accumulation, normalized to Ucn1 or CRF) of 2.41%.

As for [Lys(ClAc)^33]-^dFXCRF(12-41) (peptide), the Receptor activation at 100 nM [%] (cAMP accumulation, normalized to Ucn1 or CRF) was 1.85%.

“[DPhe^12,Nle^21,38]-CRF(12-41) (peptide)” came in with a Receptor activation at 100 nM [%] (cAMP accumulation, normalized to Ucn1 or CRF) of 0.53%.

For the substance [Lys(ClAc)^17]-^dFXCRF(12-41) (peptide), the Receptor activation at 100 nM [%] (cAMP accumulation, normalized to Ucn1 or CRF) worked out at 0.31%.

As to [ClAc^0]-^dFXCRF(12-41) (peptide), the Receptor activation at 100 nM [%] (cAMP accumulation, normalized to Ucn1 or CRF) amounted to 0.62%.

In the case of “corticotropin-releasing factor (CRF) (from UniProt P06850 154-196) (peptide)”, the EC50 of cAMP accumulation (CRE-luciferase reporter) in HEK293 cells transfected with CRF1R amounted to 110 pM.

In the case of [Lys(ClAc)^18]-^dFXCRF(12-41) (peptide), the Receptor activation at 100 nM [%] (cAMP accumulation, normalized to Ucn1 or CRF) was found to be 0.59%.

[Lys(ClAc)^13]-^XCRF (peptide) had an EC50 of cAMP accumulation (CRE-luciferase reporter) in HEK293 cells transfected with CRF1R of 30 pM.

[Lys(ClAc)^15]-^XCRF (peptide) yielded an EC50 of cAMP accumulation (CRE-luciferase reporter) in HEK293 cells transfected with CRF1R of 80 pM.

As for [Lys(ClAc)^14]-^dFXCRF(12-41) (peptide), the Receptor activation at 100 nM [%] (cAMP accumulation, normalized to Ucn1 or CRF) is 1.49%.

The substance [Lys(ClAc)^17]-^XCRF (peptide) returned an EC50 of cAMP accumulation (CRE-luciferase reporter) in HEK293 cells transfected with CRF1R of 80 pM.

Regarding [Lys(ClAc)^33]-^XCRF (peptide), the EC50 of cAMP accumulation (CRE-luciferase reporter) in HEK293 cells transfected with CRF1R came to 40 pM.

In turn, CRF(9-41) (peptide) came in with a Receptor activation at 100 nM [%] (cAMP accumulation, normalized to Ucn1 or CRF) of 4.03%.

Substance [Lys(ClAc)^16]-^dFXCRF(12-41) (peptide) yielded a Receptor activation at 100 nM [%] (cAMP accumulation, normalized to Ucn1 or CRF) of 1.06%.

Take [Lys(ClAc)^16]-^XCRF (peptide): the EC50 of cAMP accumulation (CRE-luciferase reporter) in HEK293 cells transfected with CRF1R was determined as 200 pM.

For Ucn1(8-40) (peptide), the Receptor activation at 100 nM [%] (cAMP accumulation, normalized to Ucn1 or CRF) came out at 8.2%.

Another assay concerns CRF1R.
Experiment: not given
The conditions noted are these: ref Gulyas et al., 1995; cited from earlier work.
As for “[DPhe^12,Nle^21,38]-CRF(12-41) [^dFXCRF(12-41)]”, the “Binding affinity of CRF1R relative to CRF (lower)” value is ~ 10 fold.

Another assay deals with T1, CRF1R (Rattus norvegicus, UniProt P35353).
T1 construct: all our experimental data are obtained from the intact full-length, fully glycosylated receptor at the membrane of the live cell; expressed in transfected cells; host or cells: HEK293 (transient co-transfection with CRE-luciferase reporter and Renilla plasmid)
T1 sequence (P35353 24-415): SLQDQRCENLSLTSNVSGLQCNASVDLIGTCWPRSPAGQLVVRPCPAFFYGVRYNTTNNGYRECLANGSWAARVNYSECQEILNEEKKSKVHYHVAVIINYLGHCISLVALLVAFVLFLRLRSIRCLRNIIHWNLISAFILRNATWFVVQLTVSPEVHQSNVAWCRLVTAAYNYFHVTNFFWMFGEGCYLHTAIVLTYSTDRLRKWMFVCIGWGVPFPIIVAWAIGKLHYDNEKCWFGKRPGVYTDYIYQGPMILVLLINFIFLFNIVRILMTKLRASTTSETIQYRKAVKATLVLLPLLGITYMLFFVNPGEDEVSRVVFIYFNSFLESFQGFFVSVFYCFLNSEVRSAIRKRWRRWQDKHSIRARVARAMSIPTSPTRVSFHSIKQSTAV
In words: cAMP accumulation assay via luciferase reporter (ligand alone). Type of assay: cell-based. Conditions: 100 nM peptide; normalized to either Ucn1 or CRF; HEK293; mean ± s.e.m., at least three independent experiments, each in triplicate. An excerpt:
Figure 1. Photo-crosslinking mapping of CRF1R to determine footprints of agonists and antagonists. (A) Sequence alignment of CRF1R peptide ligands. The classification into N-terminus, C-terminus and helical connector is adopted from [Beyermann et al. (2000]). […] In ^dFXCRF(12-41), substitutions of the two native Met residues to Nle and the N-terminal D-amino acid to enhance its stability and potency ([Rivier and Rivier, 2014]). […] The assay measures cAMP accumulation in live HEK293 cells stimulated with serial dilutions of each ligand via a luciferase reporter. Plots are representative mean ± s.e.m. of at least three independent experiments, each run in triplicates. (B) CRF1R activation elicited by each of the ligands used in this study. […] (E) Photo-crosslinking experiments. Transiently transfected 293T cells expressing each Azi-CRF1R mutant (residues replaced by Azi are indicated in the upper row) were incubated with each of the five peptide ligands indicated in the right column, followed by UV irradiation (365 nm). […] To obtain sharper bands, samples were deglycosylated by PNGaseF. The subdivision of transmembrane helices and ECLs is based on the crystal structure of the CRF1R TMD ([Hollenstein et al., 2013]). […] DOI: http://dx.doi.org/10.7554/eLife.27711.002 Figure 1—source data 1. Numerical values of cAMP accumulation assay. The assay measures cAMP accumulation in live HEK293 cells stimulated with serial dilutions of each ligand via a luciferase reporter. Raw luminescence data of the firefly reporter luciferase were normalized to the Renilla control and to 100% activation of agonists. At least three independent experiments were performed per ligand, and each experiment was run in triplicate. Values in the table represent a single measurement. Mean ± s.e.m. of triplicates for one representative experiment are reported in Figure 1B–D. DOI: http://dx.doi.org/10.7554/eLife.27711.003 Figure 1—source data 2. Numerical values of whole-cell ELISA of HA-Azi-CRF1R mutants. Related to Figure 1—figure supplement 1. The absorption was measured at 492 nm. Each data point was obtained as mean of three independent experiments, each performed in triplicate. Mean ± s.e.m. of the means of the triplicates are plotted in Figure 1—figure supplement 1B. DOI: http://dx.doi.org/10.7554/eLife.27711.004 Figure 1—figure supplement 1. Expression profiles of a subset of Azi-CRF1R mutants. […] (A) Whole-cell lysates of 293T cells transiently expressing each Azi-CRF1R mutant were resolved on 10% SDS-PAGE and analyzed by Western blotting using an M2 anti-FLAG-HRP antibody. The Azi mutation site is indicated in the top row. […] (B) Whole-cell ELISA of HA-Azi-CRF1R mutants. The absorptions at 492 nm (OD492) are shown as mean ± s.e.m. obtained from three independent experiments each performed in triplicates and normalized to wild type (wt). The positions replaced by Azi are identical to (A). DOI: http://dx.doi.org/10.7554/eLife.27711.005 [drawing 1]
The day prior to transfection, 6 × 10^6 HEK293 cells were seeded in 10 cm dishes. Cells were co-transfected with 0.5 µg of plasmid encoding the wild-type CRF1R gene under control of a PGK promoter, 5 µg of the reporter construct (humanized PpyRE9 [[Branchini et al., 2010]] firefly luciferase gene driven by a cAMP-responsive element and followed by a PEST sequence), and 0.5 µg of plasmid encoding Renilla luciferase driven by a CMV promoter. Transfection was performed using PEI max as described above. The following day, cells were trypsinized and transferred into a 96-well plate at a density of 180,000 cells per well.
(Changes in cAMP serve as a functional read-out for many G protein-coupled receptors.)
As to “Ucn1(8-40): 33-mer N-truncated Ucn1 antagonist, introduced in this work for the first time (DLTFHLLRTLLELARTQSQRERAEQNRIIFDSV; ends and bridges not checked; UniProt P55089 90-122, looked up, fragment)”, the “Receptor activation at 100 nM” value was determined as 8.20 ± 2.76%.

Consider “[DPhe^12,Nle^21,38]-CRF(12-41) [^dFXCRF(12-41)]”, for which the “Receptor activation at 100 nM” value turned out to be 0.53 ± 0.47%.

Regarding “CRF(9-41): 33-mer antagonist obtained by N-terminal truncation of the first eight residues of CRF (DLTFHLLREVLEMARAEQLAQQAHSNRKLMEII; ends and bridges not checked; UniProt P06850 162-194, looked up, fragment)”, the “Receptor activation at 100 nM” value turned out to be 4.03 ± 1.27%.

Staying with this assay, now noted: Figure 1B legend; HEK293, luciferase reporter.
“Ucn1(8-40): 33-mer N-truncated Ucn1 antagonist, introduced in this work for the first time (DLTFHLLRTLLELARTQSQRERAEQNRIIFDSV; ends and bridges not checked; UniProt P55089 90-122, looked up, fragment)”: the “CRF1R activation / residual activity up to the maximal tested concentration of 100 nM” value (“CRF1R activation / residual activity up” below) is less than 10%.

Consider “[DPhe^12,Nle^21,38]-CRF(12-41) [^dFXCRF(12-41)]”, for which the “CRF1R activation / residual activity up” value is given as “did not elicit any significant receptor activation”.

Consider “CRF(9-41): 33-mer antagonist obtained by N-terminal truncation of the first eight residues of CRF (DLTFHLLREVLEMARAEQLAQQAHSNRKLMEII; ends and bridges not checked; UniProt P06850 162-194, looked up, fragment)”, for which the “CRF1R activation / residual activity up” value is recorded as less than 10%.

Staying with this assay, now noted: HEK293, luciferase reporter; agrees with literature data.
Turning to “corticotropin-releasing factor (SEEPPISLDLTFHLLREVLEMARAEQLAQQAHSNRKLMEIIGK) [CRF, 41-mer endogenous peptide agonist of CRF1R]”, the “EC50 (Figure 1B legend)” value is given as “Sub-nanomolar”.

“Urocortin I (DNPSLSIDLTFHLLRTLLELARTQSQRERAEQNRIIFDSVGK) [Ucn1, 40-mer endogenous peptide agonist of CRF1R]”: the “EC50 (Figure 1B legend)” value is “Sub-nanomolar”.

The assay is the same for the next values; noted with them: cAMP level via luciferase reporter, transiently transfected HEK293 cells, 3 hr stimulation at 37°C; mean ± s.e.m., at least three independent experiments, each in triplicate.
“SEEPPISLDLTFHLK(ClAc)REVLE[Nle]ARAEQLAQQAHSNRKL[Nle]EII-NH2 [[Lys(ClAc)^15]- ^XCRF]” came in with an EC50 of 80 ± 220 pM.

In the case of “SEEPPISLDLTFHLLRK(ClAc)VLE[Nle]ARAEQLAQQAHSNRKL[Nle]EII-NH2 [[Lys(ClAc)^17]- ^XCRF]”, a half-maximal response (EC50) required 80 pM.

On to “SEEPPISLDLTFHLLREVLE[Nle]ARAEQLAQQAHK(ClAc)NRKL[Nle]EII-NH2 [[Lys(ClAc)^33]- ^XCRF]”, for which it took 40 pM to reach a half-maximal effect (EC50).

Usually EC50 stands for the concentration needed to bring the measured effect to its halfway point. Higher therefore signals lower potency in that assay.
